Patent US20080124811A1 (AbbVie / Abbott, published 2008)

Legend:
[1] = molecular target: T1, human brain natriuretic peptide, cyclic BNP (1-32c) (human, cyclic: ring closed by a disulfide bond between the two cysteine residues; biotinylated or acridinium-labelled in some assays); experiment: … sandwich CMIA; capture 106.3AM1 on microparticles, detection 3-631-436-acridinium; second particle type
T1 construct: also called hBNP; hBNP 1-32

[2] = molecular target: T1, human brain natriuretic peptide, cyclic …; experiment: … sandwich CMIA; capture 106.3AM1 on microparticles, detection 3-631-436-acridinium
[3] = molecular target: T1, human brain natriuretic peptide, cyclic …; experiment: BIAcore SPR, cAb captured on goat anti-human Fc, BNP in solution, 25 C
[4] = molecular target: T1, human brain natriuretic peptide, cyclic …; experiment: KinExA, solution phase
[5] = molecular target: T1, human brain natriuretic peptide, cyclic …; experiment: off-rate assay on yeast-displayed scFv by flow cytometry: biotinylated cyclic BNP (1-32c), chase with unlabelled BNP 1-32c, SA:PE, first order decay fit
[6] = molecular target: T1, human brain natriuretic peptide, cyclic …; experiment: off-rate assay on yeast-displayed scFv by flow cytometry: biotinylated cyclic BNP (1-32c), chase with unlabelled BNP 1-32c, SA:PE; m2 of the first order decay fit (error 3.6694e-06, R 0.9993), time axis in sec
[7] = molecular target: T1, human brain natriuretic peptide, cyclic …; experiment: yeast display off-rate assay, flow cytometry; t1/2 = ln 2/koff
[8] = molecular target: T1, human brain natriuretic peptide, cyclic …; experiment: … sandwich CMIA; capture 3-631-436 on microparticles, detection 106.3AM1-acridinium
[9] = molecular target: T1, human brain natriuretic peptide, cyclic …; experiment: BIAcore SPR, antibody captured on goat anti-mouse Fc, BNP in solution, 25 C
[10] = molecular target: T1, human brain natriuretic peptide, cyclic …; experiment: KinExA, solution phase; remark: listed apart in the source
[11] = molecular target: T1, human brain natriuretic peptide, cyclic …; experiment: Biacore SPR, antibody captured on goat anti-mouse Fc, BNP injected, 1:1 Langmuir fit
[12] = molecular target: T1, human brain natriuretic peptide, cyclic …; experiment: … sandwich CMIA; capture 3-631-436 on microparticles, detection 106.3AM1-acridinium; second particle type
[13] = molecular target: T1, human brain natriuretic peptide, cyclic …; experiment: … sandwich CMIA; capture 3631436 ms on microparticles, detection 106.3AM2-acridinium
[14] = molecular target: T1, human brain natriuretic peptide, cyclic …; experiment: off-rate assay on yeast-displayed scFv by flow cytometry: biotinylated cyclic BNP (1-32c), chase with unlabelled BNP 1-32c, SA:PE, first order decay fit; remark: listed apart in the source
[15] = molecular target: T1, human brain natriuretic peptide, cyclic …; experiment: yeast display off-rate assay, flow cytometry, biotinylated cyclic BNP chased with unlabelled BNP, first order decay fit
[16] = molecular target: T1, human brain natriuretic peptide, cyclic …; experiment: scFv on yeast; method not described; printed unit µM read as pM (26 pM is said to be 10-fold lower)
[17] = molecular target: T1, human brain natriuretic peptide, cyclic …; experiment: off-rate assay on yeast-displayed scFv by flow cytometry: biotinylated cyclic BNP (1-32c), chase with unlabelled BNP 1-32c, SA:PE; m2 of the first order decay fit (error 0.00087362, R 0.98912), time axis in sec
[18] = molecular target: T1, human brain natriuretic peptide, cyclic …; experiment: off-rate assay on yeast-displayed scFv; improvement of koff over 106.3 wt

B1: 106.3 AM1 chimeric antibody (antibody, V domains shown)
VH: QIQLVQSGPELRKPGETVKISCKGSGYTFTHYGINWVKQTPRKDLKWMGWINTHTGEAYYADDFKGRFAFSLETSANTAYLQINNLNNGDMGTYFCTRSHRFGLDYWGQGTSVTVSS
VL: DNVLTQSPPSLAVSLGQRATISCKANWPVDYNGDSYLNWYQQKPGQPPKFLIYAASNLESGIPARFSGSGSGTDFNLNIHPVEEEDAATYYCQQSNEDPFTFGSGTKLEIK
modifications: Conjugated to acridinium or biotinylated in the sandwich assays (Examples 4 and 7); the sites are not defined.
notes: PTA-6987; Acridinium-conjugated or biotinylated in the sandwich assays
Ratio B/A (RLU at 30 pg/mL over 0 pg/mL) [1]: 1 | Ratio C/A (RLU at 300 pg/mL over 0 pg/mL) [1]: 5.5 | Ratio D/A (RLU at 1000 pg/mL over 0 pg/mL) [1]: 40.5 | Ratio E/A (RLU at 2000 pg/mL over 0 pg/mL) [1]: 132 | Ratio B/A (RLU at 30 pg/mL over 0 pg/mL) [2]: 1.6 | Ratio C/A (RLU at 300 pg/mL over 0 pg/mL) [2]: 17.5 | Ratio D/A (RLU at 1000 pg/mL over 0 pg/mL) [2]: 126 | Ratio E/A (RLU at 2000 pg/mL over 0 pg/mL) [2]: 394 | Kd [3]: 0.0019 nM | koff [3]: 2.4e-05 s⁻¹ | kon [3]: 1.3e+07 M⁻¹ s⁻¹ | Kd [4]: 0.0093 nM

B2: 106.3 single-chain variable fragment (scFv), unmutated, on yeast (scFv)
chain: QIQLVQSGPELRKPGETVKISCKGSGYTFTHYGINWVKQTPRKDLKWMGWINTHTGEPIYADDFKGRFAFSLETSANTAYLQINNLNNGDMGTYFCTRSHRFGLDYWGQGTSVTVSSGPAKELTPLKEAKVSDNVLTQSPPSLAVSLGQRATISCKASQSVDYNGDSYLNWYQQKPGQPPKFLIYAASNLESGIPARFSGSGSGTDFNLNIHPVEEEDAATYYCQQSNEDPFTFGSGTKLEIK
koff [5]: 8.4e-05 s⁻¹ | koff [6]: 8.44e-05 s⁻¹ | half-life (t1/2) [7]: 2.28 h

B3: monoclonal antibody 3-631-436 (wild-type mouse mAb from hybridoma cell line 3-631-436, A.T.C.C. PTA-6476) (antibody, V domains shown)
VH: QVQLQQPGAELVRPGASVKLSCKASGYTFTSYWMNWVKQRPEQGLEWIGRIDPYDSETHYNQKFKDKAILTVDKSSSTAFVQLTSLTSEDSAVYYCVSDGYWGAGTTVTVSS
VL: DVVMTQTPLTLSVTTGQPASISCKSSQSLLDSDGKTYLNWLFQRPGESPKLLIYVVSKLESGVPDRFTGSGSGTDFTLKISRVEAEDLGVYYCLQATHFPWTFGGGTKLEIK
modifications: In the sandwich assays the antibody was coupled to particles, biotinylated or acridinium-labelled; the letters do not carry this.
notes: the whole entry is named for each chain and must be cut at the linker; Coated on particles, biotinylated or acridinium-conjugated in the sandwich assays
Ratio B/A (RLU at 30 pg/mL over 0 pg/mL) [8]: 1.9 | Ratio C/A (RLU at 300 pg/mL over 0 pg/mL) [8]: 27.8 | Ratio D/A (RLU at 1000 pg/mL over 0 pg/mL) [8]: 196 | Ratio E/A (RLU at 2000 pg/mL over 0 pg/mL) [8]: 471 | Kd [9]: 0.38 nM | koff [9]: 0.0025 s⁻¹ | kon [9]: 6.7e+06 M⁻¹ s⁻¹ | Kd [10]: 0.286 nM | Kd [11]: 0.375 nM | Ratio B/A (RLU at 30 pg/mL over 0 pg/mL) [12]: 2.4 | Ratio C/A (RLU at 300 pg/mL over 0 pg/mL) [12]: 23.9 | Ratio D/A (RLU at 1000 pg/mL over 0 pg/mL) [12]: 145 | Ratio E/A (RLU at 2000 pg/mL over 0 pg/mL) [12]: 409 | Ratio B/A (RLU at 30 pg/mL over 0 pg/mL) [13]: 2.7 | Ratio C/A (RLU at 300 pg/mL over 0 pg/mL) [13]: 14.3 | Ratio D/A (RLU at 1000 pg/mL over 0 pg/mL) [13]: 32.4 | Ratio E/A (RLU at 2000 pg/mL over 0 pg/mL) [13]: 198 | Ratio F/A (RLU at 5000 pg/mL over 0 pg/mL) [13]: 595

B4: 3-631-436 scFv, unmutated, on yeast (scFv)
scFv: QVQLQQPGAELVRPGASVKLSCKASGYTFTSYWMNWVKQRPEQGLEWIGRIDPYDSETHYNQKFKDKAILTVDKSSSTAFVQLTSLTSEDSAVYYCVSDGYWGAGTTVTVSSGPAKELTPLKEAKVSDVVMTQTPLTLSVTTGQPASISCKSSQSLLDSDGKTYLNWLFQRPGESPKLLIYVVSKLESGVPDRFTGSGSGTDFTLKISRVEAEDLGVYYCLQATHFPWTFGGGTKLEIKRAAALESRGPFEGKPIPNPLLGLDSTRTGHHHHHH
koff [14]: 0.0048 s⁻¹ | koff [15]: 0.0047 s⁻¹ | Kd [16]: ~0.26 nM | half-life (t1/2) [7]: 0.04 h | koff [17]: 0.00474 s⁻¹

B5: H2 288 (scFv)
scFv (VH-linker-VL with V5 and 6His tags), displayed on yeast: QLVQSGPELRKPGETVKISCKGSGYTFTHYGINWVKQTPRKDLKWMGWINTHTGEAYYADDFKGRFAFSLETSANTAYLQINNLNNGDMGTYFCTRSHRFGLDYWGQGTSVTVSSGPAKELTPLKEAKVSDNVLTQSPPSLAVSLGQRATISCKASQSVDYNGDSYLNWYQQKPGQPPKFLIYAASNLESGIPARFSGSGSGTDFNLNIHPVEEEDAATYYCQQSNEDPFTFGSGTKLEIKRAAALESRGPFEGKPIPNPLLGLDSTRTGHHHHHH
notes: member of group m4
Fold Improvement [18]: 2.3 fold | koff [5]: 3.7e-05 s⁻¹
